Here are results for one substance from PMC8616692.

The target of this test is 3CLpro (chymotrypsin-like cysteine protease, nsp5) of SARS-CoV-2, wild type (SARS-CoV-2). Put plainly: SEC. (In general: SEC sorts molecules by how far they enter the pores of the column.)

The term stoichiometry N denotes the number of molecules, sites or subunits per partner or assembly. In the case of “3CLpro (chymotrypsin-like cysteine protease, nsp5) of SARS-CoV-2, wild type (enzyme)”, the stoichiometry N was 2.
